{"source": "patent US7572436B1", "about": "“Thionin as an antineoplastic and immunostimulant” (priority 2000, dated 2009)", "key": {"[1]": {"target": "high affinity binding site on murine Balb/C splenocytes (mouse)", "assay": "binding of 125I-labelled PT to isolated murine spleen cells; non-specific binding (100-fold excess of unlabelled iodinated PT) subtracted"}, "Balb C splenocytes [2]": {"test_system": "Balb C splenocytes", "assay": "Mitogen assay (^3H-thymidine uptake), murine splenocytes", "type": "cell-based"}, "Balb C splenocytes [3]": {"test_system": "Balb C splenocytes", "assay": "Mitogen assay (^3H-thymidine uptake), murine splenocytes", "type": "cell-based", "conditions": "for CPM of tritiated thymidine incorporated: Balb C splenocytes", "excerpt": "(§1) Murine spleen cells or human peripheral blood lymphocytes (PBLS) were obtained aseptically as described herein for use in the mitogen assay. When murine splenocytes were used, they were first treated with red cell lysing buffer (0.17 M Tris, 0.144 NH4C1, pH 7.2), washed in RPMI-10 (standard RPMI growth medium, Sigma Chemical Co., St. Louis, Mo., supplemented with 10% fetal bovine serum) and viable cells counted using Trypan Blue exclusion. Human PBLs were isolated from blood using HISTOPAQUE™-1077, a solution of FICOLL™ and sodium diatrizoate (Sigma Chemical Co., St. Louis, Mo.), and subsequent washings with RPMI-5 (RPMI supplemented with 5% fetal bovine serum) to remove platelets. Isolated lymphocytes were resuspended in RPMI-10 and a viable cell yield determined by Trypan Blue exclusion.\n(§2) Drugs and known mitogenic controls were added in triplicate to a 96-well flat bottom microplate aseptically. The culture medium was RPMI-10. Splenocytes or human-lymphocytes were added at a concentration of 3-4×10^5 cells/well, to a final volume of 200 μl/well. The assay plate was incubated at 37° C. in a 5% CO2 humidified incubator. At 48-50 hours, ^3H-thymidine was added (1 μCi/well), and the plate was harvested approximately 16-18 hours later.\n(§3) Mitogen assay microplates were harvested using an Inotech plate harvester (Inotech Biosystems International, Inc., Rockville, Md.). Counts per minute (cpm) per well were measured using the Berthold-Inotech Trace 96-plate reader (Inotech AT, Wohlen, Switzerland) and/or a scintillation counter (Packard Tri-carb 2100TR, Packard Instrument Co., Meriden, Conn.). Mitogenic activity was directly determined by comparing cpm levels to controls.\n(§4) To test whether PT stimulates mitogen activity, splenocytes were incubated for two days with IL-2 (50 units/ml) or KLH (20 μg/ml) in conjunction with PT in the concentrations shown. Figures represent the radioactivity counts of tritiated thymidine taken up during a subsequent 20-hour incubation period of cells incubated with tritiated thymidine in RPMI."}, "IL-12": {"test_system": "IL-12", "assay": "ELISA of IL-12 production by splenocytes", "type": "cell-based, Balb C murine", "conditions": "Experiment 1; 48 hours; PT 0.05 μg/ml, KLH 10 μg/ml; control 1.5", "procedure": "(§5) Identical plates are set up for an immunoassay and a mitogen assay. Mouse splenocytes and immuno-stimulating drugs are plated in duplicate wells (immunoassay) and triplicate wells (mitogen assay) in 96-well microplates as described above. The incubation at 37° C. in a humidified 5% CO2 incubator may vary from three to five days. At the end of the activation/proliferation period, the two identical plates are harvested as an immunoassay for cytokines or harvested as a mitogen assay (to which ^3H-thymidine has been added approximately 16-18 hours earlier).\n(§6) Immunoassay kits used to detect IL-1β, IL-2, and IL-12 were the murine Quantikine M™ kits produced by R&D Systems (Minneapolis, Minn.). The general procedure is the same for all interleukin cytokines, and is described in the instructions provided by the manufacturer. All reagents are used at room temperature, and are prepared according to kit instructions.\n(§7) The immunoassay plate is centrifuged at 200×g to pellet all cells. A 50 μl aliquot of Assay Diluent is first added to the center of each special enzyme-coated well supplied with the kit. Next, 50 μl of standard, control or test sample of supernatant from the immunoassay incubation plate is added to each well. This is incubated at room temperatures for two hours.\nLiquid is aspirated from the wells, and the wells are washed five times with surfactant diluted 1:25 with distilled water. A 100 μL aliquot of Conjugate is added to each well and incubated two hours at room temperature. […]\nOne hundred microliters of Substrate Solution are added to each well and incubated 30 minutes at room temperature. […] The plate is read for absorbence at 450 nm and at 540 nm for background readings.\nTo calculate the results, the duplicate readings for each pair of standard, control, and test samples are averaged and the average background optical density readings are subtracted. […] Picograms of cytokine are determined from the standard curve. Mitogenic activity determined from the cpm of ^3H-thymidine is compared to the concentrations of cytokine in the experimental samples in the corresponding immunoassay. […]"}, "IL-1": {"test_system": "IL-1", "assay": "ELISA of IL-1 production by splenocytes", "type": "cell-based, Balb C murine", "conditions": "48 hours, PT 0.05 μg/ml", "procedure": "as §5, §6, §7\nLiquid is aspirated from the wells, and the wells are washed five times with surfactant diluted 1:25 with distilled water. A 100 μL aliquot of Conjugate is added to each well and incubated two hours at room temperature. The wells are again aspirated and each well washed five times.\nOne hundred microliters of Substrate Solution are added to each well and incubated 30 minutes at room temperature. Stop Solution (100 μl) is then added to each well. The color change is light blue to yellow (activity). The plate is read for absorbence at 450 nm and at 540 nm for background readings.\nTo calculate the results, the duplicate readings for each pair of standard, control, and test samples are averaged and the average background optical density readings are subtracted. A standard curve is constructed for the cytokine by plotting the mean absorbence for each standard on the y-axis against the concentration on the x-axis and drawing a best-fit curve. Picograms of cytokine are determined from the standard curve. Mitogenic activity determined from the cpm of ^3H-thymidine is compared to the concentrations of cytokine in the experimental samples in the corresponding immunoassay.\nOne measure of macrophage activation is the production of the cytokine interleukin-1 (IL-1) and also interleukin-12 (IL-12). Incubation of 3×10^5 Balb C murine spleen cells with 0.05 μg/ml PT was performed for 48 hours. The supernatant fluid was assayed with commercial ELISA kits for IL-1 and IL-12. […] Some experiments gave less […] and some more. This is likely a reflection of the state of the immune system in the experimental mice. The addition of KLH, an effective antigen, increased both IL-1 and IL-12 production, and the addition of PT along with the KLH further increased the production of these cytokines."}, "YAC-1 target cells": {"test_system": "YAC-1 target cells", "assay": "Natural killer assay (^51Cr release), murine splenocytes against YAC-1", "type": "cell-based", "conditions": "Swiss Webster murine splenocytes; YAC-1 targets; 48 hours with drugs; PT 0.01 μg/ml, IL-2 50 units/ml when present; effector to target ratio 80", "procedure": "Murine spleen cell and human peripheral blood lymphocytes (PBLs) were obtained as described in the procedure for the Mitogen Assay.\nDrugs and control substances were added, using sterile techniques, to the wells of a 24-well plate, using RPMI-10 as the culture medium. Spleen cells or human lymphocytes were added last to the wells at a concentration of 4×10^6 cells per 2 ml total volume in the well. Splenocyte incubation was usually three days (65-70 hours) while human lymphocyte stimulation may be extended to four to five days. The cells were incubated at 37° C. in a humidified 5% CO2 incubator.\nOn the day of harvest, 10^7 target cells were labeled with 150 μCi of ^51Cr (sodium chromate). Target cells used were YAC-I (murine Lymphoma) or K562 (human chronic myelogenous leukemia).\nThe cells were adjusted to 2×10^7 cells/ml in RPMI-10 and 150 μCi of ^51Cr were added to 500 μl of the target cell suspension (10^7 total cells) and incubated in a 5% CO2 humidified incubator for 1.5 hours. The labeled cells were washed three times with 10 ml RPMI-10 and then resuspended in 5 ml (2×10^6 cells/ml). Supernatants from washings of labeled cells were isolated and contained under lead shielding.\nThe stimulated effector cells were thoroughly mixed and removed from individual wells of the 24-well plate and transferred to tubes for centrifugation at 200×g. The supernatants were decanted and the pelleted cells washed once with 2 ml RPMI-10. The cells were finally resuspended in a total volume of 500 μl at approximately 8×10^6 cells/ml in RPMI-10.\nOne hundred microliters of the effector cell suspension (8×10^5 cells) were added in triplicate to a 96-well, V-bottom microplate. RPMI-10 was added to the wells designated for spontaneous release and total release of the target cells. One hundred microliters of the target cell suspension (1×10^4 cells/well) were added to the wells for a total volume of 200 μl. The “total release” wells contained 15 μl of 9% Triton X-100, 85 μl of RPMI-10, and 100 μl of target cells.\nThe 96-well plate was centrifuged at 150×g for four minutes to gently bring the effector and target cells in contact. The plate was then incubated in a humidified 5% CO2 incubator. After four hours, the assay plate was again centrifuged for five minutes at 250×g. One hundred microliters of the supernatant was carefully removed from each well and placed in 12 mm×75 mm glass tubes for counting in a gamma counter. The percent release was calculated using the following formula: […]\nAddition of PT stimulates both murine splenocytes and human PBLs to kill tumor cells through lysis. This effect is enhanced in the presence of IL-2. Experimentally, the YAC-1 tumor cell line is routinely used as a target cell for murine NK cells, and the K562 cell line is used as the target for human PBLs. The human prostate cell line DU145 was also included in the test. The data set out in Table 5 show an activation of both murine and human NK cells by PT and IL-2. For these experiments, the drugs, PT and IL-2, were included in the cell suspension and incubated for 48 hours. After this period, the splenocyte suspension was mixed with the YAC-1 target cells that had been loaded with ^51Cr for four hours. The human PBLs were added to a K562 or DU-145 cell suspension that had been similarly loaded. After a 30-minute incubation, the radioactivity in the supernatant fluid was counted as a measure of lysis of the target cells, which reflects NK activity. […]"}, "[4]": {"test_system": "B16F10 melanoma tumor cells", "assay": "In vivo inhibition of B16F10 melanoma tumor development", "set-up": "species or system C57BL/6NCr female mice", "conditions": "B16 melanoma in C57 mice, sc 3 μg PT, 100 units IL-2", "procedure": "C57BL/6NCr female mice (20 g), approximately 50 days old, were shaved in the abdominal area, ear notched for identification, and, two or three days prior to receiving tumor cells, pre-injected subcutaneously with the immunostimulating drugs described.\nOn “day zero,” B16F10 melanoma tumor cells, cultured in αMEM medium with 10% FBS, were injected intradermally (10^5 cells in 0.1 ml) in the center of the mouse abdomen using a 26 gauge ½ inch needle. Four to five hours later, the drug treatment (as specified) was injected intradermally in a different area of the abdomen than the site of the tumor injection.\nIntradermal treatments using the immunostimulatory drug (as specified) continued either every other day or on a Monday-Wednesday-Friday injection schedule. Control tumors (in mice not receiving an immunostimulatory drug) usually formed within seven to ten days. Tumors were examined by visual inspection, measured (length by width), and the area of any resulting lesion was recorded as mm^2 every five days.\nMice were euthanized by CO2 inhalation if the tumor exceeded 500 mm^2. Some experiments were terminated early if all mice in the control group were dead, but the experiments were not less than 20 days. The normal duration of an experiment was about 30 days.\nPyrularia thionin, both alone and in combination with IL-2, was effective in preventing or retarding the development of melanoma tumors when C57BL/6NCr mice were pretreated before injection with B16F10 cells, which produce melanoma tumors."}, "non-adherent human PBLs": {"test_system": "non-adherent human PBLs", "assay": "Mitogen assay (^3H-thymidine uptake), human PBLs", "type": "cell-based", "conditions": "IL-2 50 units/ml alone (PT = 0)", "excerpt": "as §1, §2, §3, §4"}}, "data": [{"molecule": "Pyrularia thionin (from UniProt P07504) (peptide)", "values": [{"measurement": "Kd", "setting": "[1]", "result": 65, "unit": "nM"}]}, {"molecule": "OCCS", "note": "[βME, β-mercaptoethanol, reference compound]", "values": [{"measurement": "stimulation of the mitogen reaction", "setting": "Balb C splenocytes [2]; 0.1 μg/ml (PT 20 nM; βME 40 nM)", "result": "no stimulation"}]}, {"molecule": "granulocyte-macrophage colony-stimulating-factor [GM-CSF]", "values": [{"measurement": "Cpm, standard mitogen assay", "setting": "Balb C splenocytes [2]; GM-CSF (5 ng/ml) alone, no PT", "result": "1,024 Cpm"}, {"measurement": "Cpm, standard mitogen assay", "setting": "Balb C splenocytes [3]; GM-CSF (20 ng/ml) alone, no PT", "result": "1,170 Cpm"}]}, {"molecule": "keyhole limpet hemocyanin [KLH, reference compound]", "values": [{"measurement": "IL-12", "setting": "IL-12", "result": "21 ± 1.6", "unit": "pg/mL"}, {"measurement": "IL-1", "setting": "IL-1; Experiment 1, KLH 10 μg/ml, control 3.9", "result": "12.4 ± 0", "unit": "pg/mL"}, {"measurement": "IL-1", "setting": "IL-1; Experiment 4, KLH (20 mg/ml), control 9", "result": "9 ± 0.4", "unit": "pg/mL"}, {"measurement": "CPM of tritiated thymidine incorporated", "setting": "Balb C splenocytes [3]; KLH 20 μg/ml alone (PT = 0)", "result": "3,301 ± 255 CPM"}]}, {"molecule": "interleukin-2 (protein, UniProt P04351 21-169, looked up, immunostimulatory cytokine; murine IL-2 in the mouse experiments, purchased from Sigma) Interleukin-2: APTSSSTSSSTAEAQQQQQQQQQQQQHLEQLLMDLQELLSRMENYRNLKLPRMLTFKFYLPKQATELKDLQCLEDELGPLRHVLDLTQSKSFQLEDAENFISNIRVTVVKLKGSDNTFECQFDDESATVVDFLRRWIAFCQSIISTSPQ", "values": [{"measurement": "% Cytotoxicity", "setting": "YAC-1 target cells", "result": "16.3 ± 1.1", "unit": "%"}, {"measurement": "Average Tumor Size", "setting": "[4]; 20-31 days", "result": 364, "unit": "mm^2"}, {"measurement": "Number of Deaths", "setting": "[4]; total mice 12 (IL-2), 15 (PT), 24 (PT + IL-2)", "result": 1}, {"measurement": "Mice w/o Tumors", "setting": "[4]; total mice 12 (IL-2), 15 (PT), 24 (PT + IL-2), 20-31 days", "result": 0}, {"measurement": "CPM of tritiated thymidine incorporated", "setting": "Balb C splenocytes [3]; IL-2 50 units/ml alone (PT = 0)", "result": "2,379 ± 87 CPM"}, {"measurement": "CPM of tritiated thymidine incorporated", "setting": "non-adherent human PBLs", "result": "1,900 ± 64 CPM"}]}]}
